Legend:
[1] = test system: T1, 33-mer gliadin peptide LQLQPFPQPQLPYPQPQLPYPQPQLPYPQPQPF
T1 sequence: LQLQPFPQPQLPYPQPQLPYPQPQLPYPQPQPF

[2] = test system: T2, gliadin peptide PQPQLPYPQPQLP
T2 sequence: PQPQLPYPQPQLP

[3] = test system: recombinant alpha2-gliadin

Chain of barley endoprotease EPB2, mature form (chain, as listed by the source): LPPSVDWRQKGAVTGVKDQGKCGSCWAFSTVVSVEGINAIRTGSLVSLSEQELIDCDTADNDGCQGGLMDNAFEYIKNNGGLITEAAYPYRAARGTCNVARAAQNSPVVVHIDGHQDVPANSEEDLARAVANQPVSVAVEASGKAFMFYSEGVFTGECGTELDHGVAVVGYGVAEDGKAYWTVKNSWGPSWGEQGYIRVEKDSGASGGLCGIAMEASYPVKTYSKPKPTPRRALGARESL

| Substance | rate of substrate (33-mer+32-mer) disappearance [1] | time to hydrolyze 10 µM of the 33-mer with 0.1 µM enzyme [1] | Kcat/KM [2] | competitive proteolysis of the 13-mer and the 33-mer [2] | digestion of purified α2-gliadin under acidic conditions [3] |
| --- | --- | --- | --- | --- | --- |
| Sphingomonas capsulata prolyl endopeptidase (recombinant, expressed in E. coli) | 0.07 µM/min (SC PEP) | required >1 hr to reach a comparable endpoint | 492 mM^-1/s^-1 | showed a clear preference for the 13-mer peptide |  |
| barley endoprotease EPB2, mature form |  |  |  |  | efficiently digests purified α2-gliadin |
| Myxococcus xanthus prolyl endopeptidase (recombinant, expressed in E. coli) | 0.43 µM/min (MX PEP) |  | 548 mM^-1/s^-1 | showed a clear preference for the 13-mer peptide |  |
